Results published in patent US20070010016A1.

Biological target: Adenovirus 5 receptor (on HeLa cells)
Assay: cell-based or functional assay

**Q.** Which transduction of HeLa cells with Av1LacZ4 in the presence of competitor (beta-galactosidase positive cells, percent of control) does the source give for “Adenovirus 5 fiber protein (from UniProt P11818 1-581)” here?
**A.** 0.1 to 1 mug/ml
